For series [1], the target named is NP WT (Influenza A virus A/TW/12/2001 (H1N1)) (UniProt Q07FI1). As to the kind of experiment: SPR.
The target is the same in series [2]. As to the kind of experiment: SPR. The source holds these as a separate data set.

Where two headings read alike, the source gives them in different places.

Chain of NP WT (Influenza A virus A/TW/12/2001 (H1N1)) (Q07FI1 whole entry): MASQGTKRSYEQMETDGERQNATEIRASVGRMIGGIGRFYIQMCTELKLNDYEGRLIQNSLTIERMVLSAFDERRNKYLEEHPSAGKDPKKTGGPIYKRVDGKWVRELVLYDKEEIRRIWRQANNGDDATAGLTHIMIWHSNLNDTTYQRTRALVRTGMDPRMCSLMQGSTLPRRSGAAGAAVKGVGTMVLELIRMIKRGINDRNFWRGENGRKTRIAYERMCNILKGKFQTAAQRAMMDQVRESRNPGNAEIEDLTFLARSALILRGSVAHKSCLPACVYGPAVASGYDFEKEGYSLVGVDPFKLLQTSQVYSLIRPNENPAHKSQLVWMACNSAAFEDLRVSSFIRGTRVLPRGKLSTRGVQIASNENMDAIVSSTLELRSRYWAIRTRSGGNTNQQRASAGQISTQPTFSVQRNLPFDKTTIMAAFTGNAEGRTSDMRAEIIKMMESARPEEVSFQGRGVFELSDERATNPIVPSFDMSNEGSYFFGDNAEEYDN

As for “UCCAAACUCCAAACUCCAAACUCCAAAC [(UCCAAAC)4 RNA]”, the results for the Kd in series [1] and in series [2] were 8.27 nM and 10.4 nM, respectively.

Source of the values: paper PMC4768256, “Using mutagenesis to explore conserved residues in the RNA-binding groove of influenza A virus nucleoprotein for antiviral drug development” (Scientific Reports, 2016).
